Key:
[1] = molecular target: T1, CD73 protein on cancer cells (Homo sapiens, UniProt P21589); test: Flow cytometry (FACS) with 22E6 and anti-rat-IgG fluorophore-labeled secondary mAb on human cancer cell lines; format: binding; settings: approx. 30 tested human cancer cell lines, e.g. U138 MG, GBM20, MDA-MB231, T47D
T1 construct: present on the surface of human cancer cells of a total of approx. 30 tested cell lines; endogenous in cells; host or cells: about 30 human cancer cell lines, e.g. U138 MG, GBM20, MDA-MB231, T47D
T1 sequence (P21589 27-549): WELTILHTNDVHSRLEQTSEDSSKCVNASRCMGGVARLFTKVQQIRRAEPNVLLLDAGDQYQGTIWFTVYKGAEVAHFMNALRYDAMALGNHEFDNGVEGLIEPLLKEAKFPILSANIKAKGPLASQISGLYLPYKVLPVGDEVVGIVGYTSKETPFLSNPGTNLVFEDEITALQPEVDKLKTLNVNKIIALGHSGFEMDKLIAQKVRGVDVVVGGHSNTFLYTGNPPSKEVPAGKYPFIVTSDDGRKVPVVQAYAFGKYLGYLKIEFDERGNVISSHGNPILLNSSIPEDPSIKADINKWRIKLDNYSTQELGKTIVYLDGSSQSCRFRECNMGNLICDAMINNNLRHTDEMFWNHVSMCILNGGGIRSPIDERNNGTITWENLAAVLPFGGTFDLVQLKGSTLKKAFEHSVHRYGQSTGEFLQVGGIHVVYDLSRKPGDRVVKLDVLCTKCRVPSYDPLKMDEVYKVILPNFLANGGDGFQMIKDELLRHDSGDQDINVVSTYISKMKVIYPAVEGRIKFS
Procedure: (§1) FIG. 3: mAb 22E6 recognizes CD73 on cancer cells. […] Shown are 4 representative cell lines of a total of approx. 30 tested cell lines. U138 MG and GBM20 are glioblastoma cell lines, MDA-MB231 and T47D are human breast cancer cell lines. (B) Immunoblot with the same cell line, using a commercial CD73 mAb. […] Input=U138 lysate.
(§2) In this example, mAb 22E6 binding affinity was characterized (FIG. 3). […] Using a special flow cytometry technique, a fluorescence-activated cell sorting (FACS) with 22E6 and an anti-rat-IgG-specific, fluorophore-labeled secondary mAb, it was shown that the protein recognized by the 22E6 mAb of the invention is present on the surface of human cancer cells of a total of approx. 30 tested cell lines. U138 MG and GBM20 are glioblastoma cell lines, MDA-MB231 and T47D are human breast cancer cell lines. In order to compare the specificity of mAb 22E6 with the specificity of a commercial CD73 mAb an immunoblot with the same cell lines (U138 MG, GBM20, MDA-MB231 and T47D) was performed using the commercial CD73 mAb as shown in FIG. 3B.

CD73 protein = molecular target: T2, CD73 protein (Homo sapiens, UniProt P21589); test: Immunoprecipitation of CD73 from U138 glioblastoma cell lysates followed by immunoblot with commercial CD73 mAb; format: binding; settings: U138 glioblastoma lysate, versus isotype mAb
T2 construct: immunoprecipitation of the CD73 protein from lysates of U138 glioblastoma cells; endogenous in cells; host or cells: U138 glioblastoma cells (lysate)
T2 sequence (P21589 27-549): T1 sequence (P21589 27-549)
Procedure: as §1, §2

[2] = system: CD73-positive human A375 melanoma cells; test: AMP to adenosine conversion by CD73-positive A375 melanoma cells; format: cell-based; settings: A375 melanoma cells incubated with AMP for 60 min
Procedure: CD73-positive human A375 melanoma cells were incubate with AMP for 60 min and the concentration of AMP (left) and ADO (right) in the supernatant were measured. APCP is a small-molecule specific CD73 inhibitor.
(§3) Adenosine 5′-(α,β-methylene)diphosphate (APCP) is a small-molecule specific CD73 inhibitor.

human CLL cells = test: ADO generation by human CLL cells; format: cell-based
Excerpt: APCP is a CD73 small molecule inhibitor.
as §3

[3] = system: peripheral blood mononuclear cells; test: TNFα release in mixed lymphocyte reactions (ELISA); format: cell-based; settings: 5×10^5 PBMCs each from two donors, 22E6 50 μg/ml, 37°, 24 h, versus GSF-mAb
Procedure: 5×10^5 peripheral blood mononuclear cells each from two out of three different donors (A, B, C) were co-incubated in standard cell culture medium at 37° for 24 h with 22E6 (50 μg/ml) or a GSF-mAb (50 μg/ml) and the amount of TNFα was measured with a commercial ELISA assay.
Accordingly, 5×10^5 peripheral blood mononuclear cells (PBMCs) each from two out of three different donors (A, B, C) were co-incubated in standard cell culture medium at 37° for 24 h with 22E6 (50 μg/ml) or a GSF-mAb (50 μg/ml) and the amount of TNFα was measured with a commercial ELISA assay.

[4] = molecular target: T3, CD73 on cancer derived EVs (Homo sapiens, UniProt P21589); test: ADO production by EVs from malignant ascites (inorganic phosphate, malachite green assay); format: biochemical; settings: phosphate-free buffer, 1 mM AMP, 60 min, versus isotype mAb
T3 construct: from tissue; host or cells: extracellular vesicles from malignant ascites (ovarian cancer patient)
T3 sequence (P21589 27-549): T1 sequence (P21589 27-549)
Procedure: FIG. 9: 22E6 blocks ADO production by EVs from malignant ascites. EVs were incubated in phosphate-free buffer in the presence of 1 mM AMP with APCP, 22E6 or an isotype mAb for 60 min and the concentration of inorganic phosphate (Pi; produced alongside the dephosphorylation of AMP) was quantified with a malachite green assay.
Accordingly, EVs were incubated in phosphate-free buffer in the presence of 1 mM AMP with APCP, 22E6 or an isotype mAb for 60 min and the concentration of inorganic phosphate (Pi; produced alongside the dephosphorylation of AMP) was quantified with a standard malachite green assay. Based on the above it was concluded that 22E6 inhibits CD73 on cancer derived EVs.

soluble CD73 protein = molecular target: T4, soluble CD73 protein (Homo sapiens, UniProt P21589); test: Inhibitory preference: enzyme activity of soluble CD73; format: biochemical; settings: FIG. 10
T4 sequence (P21589 27-549 limits assumed): T1 sequence (P21589 27-549)

[5] = molecular target: T5, membrane-bound form of CD73 protein (Homo sapiens, UniProt P21589); test: Inhibitory preference: enzymatic activity of membrane-bound CD73; format: biochemical; settings: FIG. 10
T5 sequence (P21589 27-549): T1 sequence (P21589 27-549)

[6] = system: Peripheral blood mononuclear cells (PBMCs); test: IFN-γ release by PBMCs (ELISA); format: cell-based; settings: PBMCs from two donors incubated separately; 22E6 0.5 μg/ml and 5 μg/ml; 24 h; versus isotyp antibody
Procedure: FIG. 15: Massive release of interferon-gamma (IFN-γ) being induced by mAB 22E6 in comparison to an isotyp antibody. IFN-γ being a marker for the activation of cytotoxic T-cells. Peripheral blood mononuclear cells (PBMCs) from two different donors were incubated separately as indicated at 37° C. for 24 h. Interferon-gamma (IFN-γ) in the supernatant was then quantified by a standard ELISA assay.
Peripheral blood mononuclear cells (PBMCs) from two different donors were incubated separately in standard cell culture medium at 37^0 for 24 h with 22E6 (0.5 μg/ml and 5 μg/ml), APCP (1 μM and 5 μM), isotyp antibody (5 μg/ml), aPD-1 (5 μg/ml) and control (5 μg/ml). The amount of interferon-gamma (IFN-γ) in the supernatant was then measured with a commercial ELISA assay.

B1: 22E6: rat monoclonal anti-CD73 antibody from immunization with GBM20 glioblastoma EVs; VH SEQ ID NO: 9, VL SEQ ID NO: 13 (antibody, listed as Rattus norvegicus, V domains shown)
VH: EVQLVESGGGLVQPGRSMKLSCAASGFTFSFYYMAWVRQAPTKGLEWVASISTGGGNTYYRDSVKGRFTISRDDAKSTLYLQMDSLRSEETATYYCARHGGDYYGYRGGYFDYWDQGVMVTVSS
VL: DIQMTQTPSSMPASLGERVTISCRASQGINNYLNWYQQKPDGTIKPLIYYTSNLQSGVPSRFSGSGSGTDYSLTISSLEPEDFAMYYCQQYDNSPYTFGAGTKLELK
modifications: (1)..(124) VH region; SITE (26)..(32) VH complementary determining region 1 (VH CDR1); SITE (52)..(57) VH complementary determining region 2 (H-CDR2); SITE (99)..(113) VH complementary determining region 3 (H-CDR3); (1)..(107) VL region; SITE (24)..(34) VL complementary determining region 1 (L-CDR1); SITE (50)..(56) VL complementary determining region 2 (L-CDR2); SITE (89)..(97) VL complementary determining region 3 (L-CDR3)
recognition of CD73 on the surface of cancer cells [1]: recognizes CD73 protein on cancer cells
specificity for CD73 by immunoprecipitation (CD73 protein): demonstrated the specificity of 22E6
adenosine production (AMP and ADO concentration in supernatant) [2]: blocks adenosine production
ADO generation (human CLL cells): inhibits ADO generation by human CLL cells
release of TNFα [3]: increases the release of TNFα
ADO production by EVs (inorganic phosphate concentration) [4]: blocks ADO production by EVs derived from malignant ascites
effect on the enzyme activity of soluble CD73 protein (soluble CD73 protein): no or essentially no effect
inhibitory preference, membrane-bound versus soluble form of CD73 [5]: inhibitory preference for enzymatic activity of a membrane-bound form of CD73 protein
release of IFN-γ in the supernatant [6]: increases massive release of IFN-γ

Reference: patent US11530273B2, “Anti-CD73 monoclonal antibody, encoding nucleic acids and method for producing” (HELMHOLTZ ZENTRUM MÜNCHEN—DEUTSCHES FORSCHUNGSZENTRUM FÜR …, priority 2017, dated 2022)
